In this assay the target is aflibercept (human). As to the kind of experiment: SPR. A general note: Surface plasmon resonance follows binding to a sensor surface in real time, without labels.

One may read the Kd as a measure of binding affinity in units of concentration. As usually defined, the kon is the second-order rate constant of association. A high value points to faster complex formation. The substance human VEGF-A165 (ligand) had a Kd of 0.0147 nM and a kon of 1.16e+07 M⁻¹ s⁻¹.

Source of the values: article PMC8800040.
